Changes are numbered by the printed parent chain.
How the values were obtained:
[1] = target: T1, rat PTH1R on UMR106 cells (rat, UniProt P25961 27-591); test: cell-based or functional assay
T1 sequence (looked up): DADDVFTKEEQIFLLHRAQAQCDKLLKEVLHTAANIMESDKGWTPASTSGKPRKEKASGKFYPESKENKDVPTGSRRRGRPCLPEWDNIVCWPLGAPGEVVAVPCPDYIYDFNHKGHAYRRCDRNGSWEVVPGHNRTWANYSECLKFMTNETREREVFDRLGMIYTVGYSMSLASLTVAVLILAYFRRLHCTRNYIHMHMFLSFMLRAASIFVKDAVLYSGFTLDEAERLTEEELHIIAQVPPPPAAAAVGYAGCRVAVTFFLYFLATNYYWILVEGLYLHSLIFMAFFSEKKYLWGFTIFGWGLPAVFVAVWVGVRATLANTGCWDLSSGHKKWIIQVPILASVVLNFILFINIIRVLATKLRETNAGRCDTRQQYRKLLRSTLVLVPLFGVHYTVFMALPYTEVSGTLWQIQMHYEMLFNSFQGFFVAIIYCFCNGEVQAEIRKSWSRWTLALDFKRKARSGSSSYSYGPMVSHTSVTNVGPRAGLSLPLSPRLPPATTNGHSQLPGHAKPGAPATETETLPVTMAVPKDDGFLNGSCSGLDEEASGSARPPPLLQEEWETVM

[2] = target: T2, human PTH1R on Saos-2 cells (endogenous) (human, UniProt Q03431 27-593); test: cell-based or functional assay
T2 sequence (looked up): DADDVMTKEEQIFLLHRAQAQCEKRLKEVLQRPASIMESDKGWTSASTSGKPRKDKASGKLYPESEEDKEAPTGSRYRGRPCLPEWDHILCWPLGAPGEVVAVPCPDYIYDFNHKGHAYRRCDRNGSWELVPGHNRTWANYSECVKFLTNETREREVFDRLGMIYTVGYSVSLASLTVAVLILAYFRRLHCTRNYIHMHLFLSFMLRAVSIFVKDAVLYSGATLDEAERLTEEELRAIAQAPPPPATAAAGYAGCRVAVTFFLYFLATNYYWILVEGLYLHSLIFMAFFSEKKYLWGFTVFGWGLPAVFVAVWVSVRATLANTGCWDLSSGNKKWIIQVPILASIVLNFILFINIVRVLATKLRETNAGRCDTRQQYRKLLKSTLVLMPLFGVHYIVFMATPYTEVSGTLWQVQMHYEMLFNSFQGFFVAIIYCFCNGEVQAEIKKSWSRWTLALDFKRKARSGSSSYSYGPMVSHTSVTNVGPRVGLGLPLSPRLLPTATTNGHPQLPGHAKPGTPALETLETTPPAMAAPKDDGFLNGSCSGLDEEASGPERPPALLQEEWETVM

[3] = target: T3, human PTH1R overexpressed on CHO cells (human, UniProt Q03431 27-593); test: cell-based or functional assay
T3 sequence (looked up): T2 sequence (looked up)

[4] = target: T4, mouse PTH1R overexpressed on CHO cells (mouse, UniProt P41593 27-591); test: cell-based or functional assay
T4 sequence (looked up): T1 sequence (looked up) with S58P, P497L, T518I, T520N, L523I, A528T

[5] = target: T5, human PTH2R overexpressed on CHO cells (human, UniProt P49190 25-550); test: flow cytometry on CHO cells overexpressing human PTH2R, 1 hr at 4 C, APC anti-human IgG
T5 construct: whole, on cells; also called CHO human PTH2R
T5 sequence (P49190 25-550): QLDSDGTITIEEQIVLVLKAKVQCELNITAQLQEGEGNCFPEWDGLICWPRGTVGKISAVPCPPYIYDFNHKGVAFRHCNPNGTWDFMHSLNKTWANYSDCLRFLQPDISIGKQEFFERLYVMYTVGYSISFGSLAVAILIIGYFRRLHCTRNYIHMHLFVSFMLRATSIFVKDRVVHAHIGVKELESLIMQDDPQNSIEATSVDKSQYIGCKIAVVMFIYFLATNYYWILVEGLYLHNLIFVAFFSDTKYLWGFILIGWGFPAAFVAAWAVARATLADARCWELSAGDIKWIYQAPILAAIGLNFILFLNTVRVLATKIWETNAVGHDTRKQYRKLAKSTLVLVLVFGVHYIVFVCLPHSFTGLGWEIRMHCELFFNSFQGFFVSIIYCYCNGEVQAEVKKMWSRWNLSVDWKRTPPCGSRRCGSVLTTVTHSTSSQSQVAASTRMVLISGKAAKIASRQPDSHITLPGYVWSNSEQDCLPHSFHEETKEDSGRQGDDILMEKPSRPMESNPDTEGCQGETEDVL
Description: Increasing concentrations of anti-PTH1R antibodies were added to CHO cells overexpressing human PTH2R and incubated for 1 hr at 4° C. (FIG. 8). Cells were washed twice with FACS Buffer and antibody binding was detected with anti-human IgG APC. […] Anti-KLH.G2 was used a negative control for binding.
PTH2R has a 51% homology to PTH1R. […] Following two washes, cells were incubated with Allophycocyanin (APC) AffiniPure F(ab′)₂ Fragment Goat Anti-Human IgG (H+L) (Jackson ImmunoResearch, West Grove, Pa.) for 20 minutes at 4° C. Cells were washed twice and resuspended in FACS Buffer. Samples were acquired using BD Cytometer (BD Biosciences, San Jose, Calif.) and data were analyzed using FlowJo (FlowJo, LLC, Ashland, Oreg.) and Prism (GraphPad Software, La Jolla, Calif.). […] Anti-KLH.G2 was used a negative control for binding.

[6] = target: T6, human PTH1R overexpressed on Saos-2 cells (human, UniProt Q03431 27-593); test: flow cytometry on Saos-2 cells overexpressing human PTH1R, antibody alone, PE anti-human IgG
T6 construct: whole, on cells; also called Saos-2 human PTH1R cells
T6 sequence (looked up): T2 sequence (looked up)

[7] = target: T6, human PTH1R overexpressed on Saos-2 …; test: flow cytometry on Saos-2 cells overexpressing human PTH1R, in the presence of 1 uM PTH, PE anti-human IgG
[8] = target: T6, human PTH1R overexpressed on Saos-2 …; test: flow cytometry on Saos-2 cells overexpressing human PTH1R, in the presence of 3 uM PTHrP, PE anti-human IgG
From the text: Antibody binding was detected with R-Phycoerythrin anti-human IgG.

% inhibition of cAMP accumulation at 1 µM PTH(1-34), 267 nM IgG [1]: 50%
% inhibition of cAMP accumulation at 1 µM PTHrP(1-34), 267 nM IgG [1]: 41%
% inhibition of cAMP accumulation at 1 µM PTH(1-34), 267 nM IgG [2]: 79%
% inhibition of cAMP accumulation at 1 µM PTHrP(1-34), 267 nM IgG [2]: 90%
IC50, inhibition of PTH(1-34)-induced cAMP accumulation [3]: 16.6 nM
IC50, inhibition of PTHrP(1-34)-induced cAMP accumulation [3]: 6.54 nM
IC50, inhibition of PTHrP(1-34)-induced cAMP accumulation [4]: 2.66 nM
binding result [5]: no binding (tested: about 160 nM)
EC50 [6]: 7.61 nM
EC50 [7]: 35.3 nM
EC50 [8]: 656 nM
B1: XPA.85.329 (antibody, V domains shown)
VH: QMQLVQSGAEVKKPGSSVKVSCKASGGTFSSYAISWVRQAPGQGLEWMGGIIPIFGTANYAQKFQGRVTITADESTSTAYMELSSLRSEDTAVYYCARGYVVARLWGQGTLVTVSS
VL: DIVMTQTPLSLSVTPGQPASISCKSSQSLLHIDGLTYLYWYLQKPGQPPQLLIYEVSHRFSGVSDKFSGSGSGTDFTLTISRVEAEDVGVYYCMQSLHLPITFGQGTRLEIK
notes: IgG; also called Ab329; XPA.329
